According to US20240392024A1:

Biological target: human TNFR2 on the cell membrane (human) (UniProt P20333)
Assay: flow cytometry on human PBMC, CD3+ T cells

Sequence of human TNFR2 on the cell membrane (human) (P20333 23-461): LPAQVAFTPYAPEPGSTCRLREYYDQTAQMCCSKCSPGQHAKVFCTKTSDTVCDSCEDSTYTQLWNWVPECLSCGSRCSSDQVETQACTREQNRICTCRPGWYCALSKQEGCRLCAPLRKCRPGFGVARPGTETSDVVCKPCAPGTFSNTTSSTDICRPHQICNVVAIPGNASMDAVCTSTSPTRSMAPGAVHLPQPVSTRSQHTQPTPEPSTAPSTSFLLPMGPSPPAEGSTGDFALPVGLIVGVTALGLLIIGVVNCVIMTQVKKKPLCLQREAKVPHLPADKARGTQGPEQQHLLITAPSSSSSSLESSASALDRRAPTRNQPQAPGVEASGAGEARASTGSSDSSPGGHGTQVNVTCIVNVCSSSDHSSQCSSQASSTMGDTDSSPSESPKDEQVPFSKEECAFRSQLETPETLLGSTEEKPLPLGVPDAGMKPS

percent of cells in the upper right quadrant (Q1-UR, CD3+ and anti-human IgG Fc+): 5.48%
Substance: Isotype Ctrl (antibody)
